# T1: SlALR (Streptomyces lavendulae, UniProt Q65YW7)
# T1 construct: gene alr; expressed in E. coli BL21(DE3), Ni-NTA purified
# T1 sequence (Q65YW7 2-378): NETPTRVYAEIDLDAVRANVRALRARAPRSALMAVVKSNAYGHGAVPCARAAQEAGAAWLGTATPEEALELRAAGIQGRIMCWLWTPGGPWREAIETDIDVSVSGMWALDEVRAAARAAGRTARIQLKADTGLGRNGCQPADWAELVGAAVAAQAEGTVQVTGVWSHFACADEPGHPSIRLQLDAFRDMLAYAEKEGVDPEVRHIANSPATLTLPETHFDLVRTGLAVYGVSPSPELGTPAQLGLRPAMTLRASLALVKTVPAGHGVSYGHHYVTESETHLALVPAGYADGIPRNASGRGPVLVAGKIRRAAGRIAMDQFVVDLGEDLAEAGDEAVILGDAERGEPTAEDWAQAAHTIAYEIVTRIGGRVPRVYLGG
# T2: NAD-PseFDH (Pseudomonas sp. 101, UniProt P33160)
# T2 construct: N-terminal His6 tag followed by TEV site (His6 purified); source plasmid pZ-ASL; expressed in E. coli BL21(DE3)
# T2 sequence (P33160 2-401): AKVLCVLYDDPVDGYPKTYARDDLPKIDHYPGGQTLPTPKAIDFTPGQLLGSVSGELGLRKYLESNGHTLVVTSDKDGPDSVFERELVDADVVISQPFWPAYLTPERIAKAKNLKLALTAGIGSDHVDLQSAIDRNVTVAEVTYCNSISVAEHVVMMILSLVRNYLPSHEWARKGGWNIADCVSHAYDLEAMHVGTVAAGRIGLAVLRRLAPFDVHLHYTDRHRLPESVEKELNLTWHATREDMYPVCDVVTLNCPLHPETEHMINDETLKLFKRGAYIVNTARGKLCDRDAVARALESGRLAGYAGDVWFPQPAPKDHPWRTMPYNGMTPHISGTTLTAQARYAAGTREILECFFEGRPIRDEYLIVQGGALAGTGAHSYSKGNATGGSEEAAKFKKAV
# Experiments:
# SlALR = molecular target: T1, SlALR; assay: HPLC of released pyruvate; type: biochemical; conditions: beta-elimination of fluoride; 10 mM substrate, 0.02 or 0.1 μM enzyme, 50 μM pyridoxal 5'-phosphate, pH 8.0, 30 °C, 18 h
# NAD-PseFDH = molecular target: T2, NAD-PseFDH; assay: FDH activity assay with formate; type: biochemical
# CC(=O)C(=O)O = assay: purified protein; type: biochemical, Vibrio proteolyticus; conditions: reductive amination, 0.5 mM NADH, 200 mM NH4Cl, 50 mM sodium phosphate pH 8.0, 30 °C
# O=C(O)C(=O)CF = assay: purified protein; type: biochemical, Vibrio proteolyticus; conditions: reductive amination, 0.5 mM NADH, 200 mM NH4Cl, 50 mM sodium phosphate pH 8.0, 30 °C
# purified protein [1] = substrate: CC(=O)C(=O)O; assay: purified protein; type: biochemical, Symbiobacterium thermophilum; conditions: reductive amination, 0.5 mM NADPH, 200 mM NH4Cl, 50 mM sodium phosphate pH 8.0, 30 °C
# purified protein [2] = substrate: O=C(O)C(=O)CF; assay: purified protein; type: biochemical, Symbiobacterium thermophilum; conditions: reductive amination, 0.5 mM NADPH, 200 mM NH4Cl, 50 mM sodium phosphate pH 8.0, 30 °C
molecule,measurement,setting,value
"N[C@H](CF)C(=O)O [(S)-FAla, (S)-3-fluoroalanine]",HPLC of released pyruvate,SlALR,(R)-FAla and (S)-FAla were transformed by ^SlALR into Pyr
NC(=O)c1ccc[n+]([C@@H]2O[C@H](COP(=O)(O)OP(=O)(O)OC[C@H]3O[C@@H](n4cnc5c(N)ncnc54)[C@H](O)[C@@H]3O)[C@@H](O)[C@H]2O)c1 [NAD^+],FDH activity assay with formate,NAD-PseFDH; formate as co-substrate,confirmed the high specificity for either cofactor of the purified NAD-^PseFDH and NADP-^PseFDH enzymes
O=CO [formate],FDH activity assay with formate,NAD-PseFDH; NAD+ as co-substrate,the functionality of both ^PseFDH enzymes was verified on formate
VpALD (Vibrio proteolyticus),Km,CC(=O)C(=O)O,0.29 ± 0.04 mM
same,Vmax,CC(=O)C(=O)O,247 µmol/min/mg
same,kcat,CC(=O)C(=O)O,173 ± 8 s⁻¹
same,kcat/Km,CC(=O)C(=O)O,597000 M⁻¹ s⁻¹
same,Km,O=C(O)C(=O)CF,0.18 ± 0.02 mM
same,Vmax,O=C(O)C(=O)CF,11.9 µmol/min/mg
same,kcat,O=C(O)C(=O)CF,8.3 ± 0.3 s⁻¹
same,kcat/Km,O=C(O)C(=O)CF,46100 M⁻¹ s⁻¹
"N[C@@H](CF)C(=O)O [(R)-FAla, (R)-3-fluoroalanine]",HPLC of released pyruvate,SlALR,(R)-FAla and (S)-FAla were transformed by ^SlALR into Pyr
"StDAPDH (Symbiobacterium thermophilum IAM 14863) (protein, expressed in E. coli BL21(DE3), Ni-NTA purified) DKLRVAVVGYGNVGRYALEAVQAAPDMELVGVVRRKVLAATPPELTGVRVVTDISQLEGVQGALLCVPTRSVPEYAEAMLRRGIHTVDSYDIHGDLADLRRRLDPVAREHGAAAVISAGWDPGTDSIIRALLEFMAPKGITYTNFGPGMSMGHSVAVKAIPGVRDALSMTIPAGMGVHKRAVYVELEPGADFAEVERAIKTDPYFVRDETRVTQVESVSALMDVGHGVVMERKGVSGATHNQLFRFEMRINNPALTAQVMVAALRAAARQKPGCYTMIEIPVIDYLPGDREAWIRKLV",Km,purified protein [1],6.7 ± 0.3 mM
same,Vmax,purified protein [1],1.81 µmol/min/mg
same,kcat,purified protein [1],1.05 ± 0.01 s⁻¹
same,kcat/Km,purified protein [1],160 M⁻¹ s⁻¹
same,Km,purified protein [2],14.0 ± 0.6 mM
same,Vmax,purified protein [2],0.161 µmol/min/mg
same,kcat,purified protein [2],0.093 ± 0.001 s⁻¹
same,kcat/Km,purified protein [2],6.6 M⁻¹ s⁻¹
